Data taken from PMC6061855 (Nucleic Acids Research, 2018).
Positions count from the first letter of the chain named. Names may count otherwise. Each block holds one molecule with its values, some of them ahead of it.

T1: RppHt;DapFm (Escherichia coli;Escherichia coli, UniProt P0A776;P0A6K1 1-158;1-274, |R36A;Y268A)
T1 sequence 1: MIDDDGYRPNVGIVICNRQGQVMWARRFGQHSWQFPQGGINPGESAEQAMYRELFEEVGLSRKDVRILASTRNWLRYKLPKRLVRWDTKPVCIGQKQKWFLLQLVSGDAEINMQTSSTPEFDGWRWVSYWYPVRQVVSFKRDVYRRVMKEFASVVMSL
T1 sequence 2: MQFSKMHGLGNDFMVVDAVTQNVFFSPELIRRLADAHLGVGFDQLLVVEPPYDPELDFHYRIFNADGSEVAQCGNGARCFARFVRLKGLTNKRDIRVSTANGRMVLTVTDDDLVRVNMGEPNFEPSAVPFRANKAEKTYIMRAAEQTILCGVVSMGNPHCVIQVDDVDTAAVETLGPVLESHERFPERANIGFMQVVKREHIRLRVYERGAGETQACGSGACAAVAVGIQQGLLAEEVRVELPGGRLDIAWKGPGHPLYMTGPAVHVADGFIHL

T2: DapFm (E. coli DapF with Y268A and R36A mutations) (E. coli, UniProt P0A6K1 1-274, Y268A | R36A)
T2 sequence: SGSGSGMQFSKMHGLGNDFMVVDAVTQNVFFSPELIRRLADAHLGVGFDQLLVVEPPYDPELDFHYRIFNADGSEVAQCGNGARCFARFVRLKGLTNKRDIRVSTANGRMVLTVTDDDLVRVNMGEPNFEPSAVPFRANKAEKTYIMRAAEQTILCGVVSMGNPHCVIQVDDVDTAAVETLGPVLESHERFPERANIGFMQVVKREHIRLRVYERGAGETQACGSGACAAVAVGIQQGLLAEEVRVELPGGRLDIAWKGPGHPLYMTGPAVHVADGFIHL

T3: His6-SUMO-DapF (E. coli DapF with uncleaved N-terminal hexahistidine and SUMO tags) (E. coli, UniProt P0A6K1 1-274)
T3 sequence: T2 sequence with A42R, A274Y

T4: RppH^R134A (E. coli RppH mutant), His6-SUMO-tagged (E. coli, UniProt P0A776 1-176, R134A)
T4 sequence (looked up): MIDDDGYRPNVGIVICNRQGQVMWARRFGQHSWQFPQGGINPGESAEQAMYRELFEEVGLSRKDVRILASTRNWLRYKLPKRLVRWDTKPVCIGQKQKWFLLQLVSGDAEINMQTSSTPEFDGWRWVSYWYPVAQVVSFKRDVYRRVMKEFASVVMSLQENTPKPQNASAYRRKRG

T5: His6-SUMO-tagged E. coli RppH (E. coli, UniProt P0A776 1-176)
T5 sequence (looked up): T4 sequence (looked up) with A134R

B1: ppcpAGU (ssRNA)
RNA: AGU
modifications: 5' triphosphate analog ppcpA (non-natural bridging group, from ppcpA starter nucleotide)
B2: Full-length E. coli RppH (RNA pyrophosphohydrolase) (enzyme, UniProt P0A776 1-176, looked up)
chain: T4 sequence (looked up) with A134R
B3: DapFm (E. coli DapF with Y268A and R36A mutations) (enzyme)
chain: T2 sequence
B4: DapF V19S-F58S (E. coli DapF double mutant) (enzyme)
chain: T2 sequence with V25S, A42R, F64S, A274Y
B5: E. coli DapF (diaminopimelate epimerase) bearing six additional residues (SGSGSG) at the amino terminus (enzyme)
chain: T2 sequence with A42R, A274Y
B6: DapF F58S-L89S (E. coli DapF double mutant) (enzyme)
chain: T2 sequence with A42R, F64S, L95S, A274Y
B7: DapF V19S-L89S (E. coli DapF double mutant) (enzyme)
chain: T2 sequence with V25S, A42R, L95S, A274Y
B8: DapF^V19S,F58S,L89S (E. coli DapF triple mutant) (enzyme)
chain: T2 sequence with V25S, A42R, F64S, L95S, A274Y

Assays:
[1] = target: His6-SUMO-DapF (E. coli DapF with uncleaved N-terminal hexahistidine and SUMO tags) (E. coli) (UniProt P0A6K1); experiment: BLI
[2] = target: T1, RppHt;DapFm; experiment: X-ray crystallography
[3] = target: T2, DapFm (E. coli DapF with Y268A and R36A …)
[4] = target: T3, His6-SUMO-DapF (E. coli DapF with …); experiment: cross-linking
[5] = target: T2, DapFm (E. coli DapF with Y268A and R36A …); experiment: BLI
[6] = target: EcRppH(1–158)AA, truncated variant of E. coli RppH (E. coli) (UniProt P0A776); experiment: BLI
[7] = target: B2; experiment: BLI
[8] = target: T4, RppH^R134A (E. coli RppH mutant), …; experiment: BLI
[9] = target: T5, His6-SUMO-tagged E. coli RppH; experiment: BLI

- Kd [1]: 1900 nM
Molecule: RppH^W130A,R145A (E. coli RppH double mutant) (from UniProt P0A776 1-176) (enzyme)

Molecule: B1
- binding result [2]: binds

Molecule: B2
- stoichiometry N [3]: 1 RppH per DapFm (printed as 1:1)
- stoichiometry N [4]: 1 RppH per DapF (printed as 2:2)
- Kd [5]: 7.5 nM

Molecule: B3
- Kd [6]: 6 nM

Molecule: B4
- fold reduction of the binding affinity against wild-type DapF [7]: 59 fold

Molecule: B5
- fold reduction of the binding affinity against wild-type RppH [8]: 2 fold

Molecule: B6
- fold reduction of the binding affinity against wild-type DapF [7]: 290 fold

Molecule: B7
- fold reduction of the binding affinity against wild-type DapF [7]: 77 fold

Molecule: B8
- fold decrease of binding against wild-type DapF [9]: ~5800 fold
